According to patent publication US20240132578A1:

Key:
Assay in all cases: cell-based or functional assay
[1] = molecular target: HIV-1 envelope glycoprotein (Env) of isolate APV_17, on pseudovirus (HIV-1)
[2] = molecular target: HIV-1 envelope glycoprotein (Env) of isolate SC422661.8, on pseudovirus (HIV-1)
[3] = molecular target: HIV-1 Env of isolate MGRM-F1-023 (pseudovirus) (HIV-1)
[4] = molecular target: HIV-1 envelope glycoprotein (Env) of isolate MGRM-AE-003, subtype AE (HIV-1)
[5] = molecular target: HIV-1 envelope glycoprotein (Env) of isolate MG RM-A-007, subtype A (HIV-1)
[6] = molecular target: HIV-1 envelope glycoprotein (Env) of isolate MG RM-A-013, subtype A (HIV-1)
[7] = molecular target: HIV-1 envelope glycoprotein (Env) of isolate MGRM-Chronic-B-004, on pseudovirus (HIV-1)
[8] = molecular target: HIV-1 envelope glycoprotein (Env) of isolate MGRM-Chronic-B-011, on pseudovirus (HIV-1)
[9] = molecular target: HIV-1 envelope glycoprotein (Env) of isolate MG RM-AG-009 (HIV-1)
[10] = molecular target: HIV-1 Env of pseudovirus MGRM-D-028 (HIV-1)
[11] = molecular target: HIV-1 Env of pseudovirus MGRM-D-018 (HIV-1)
[12] = molecular target: HIV-1 Env of pseudovirus MGRM-D-016 (HIV-1)
[13] = molecular target: HIV-1 envelope glycoprotein (Env) of isolate MG RM-AG-003 (HIV-1)
[14] = molecular target: HIV-1 Env of isolate MGRM-AE-002 (pseudovirus) (HIV-1)
[15] = molecular target: HIV-1 Env of isolate MGRM-G-025 (subtype G) (HIV-1)
[16] = molecular target: HIV-1 Env of isolate 98CN006 (HIV-1)
[17] = molecular target: HIV-1 Env of isolate 92UG024 (HIV-1)
[18] = molecular target: HIV-1 Env of isolate MG RM-A-010 (pseudovirus) (HIV-1)
[19] = molecular target: HIV-1 Env of isolate 92UG005 (HIV-1)
[20] = molecular target: HIV-1 Env of pseudovirus isolate 93TH305 (clade B) (HIV-1)
[21] = molecular target: HIV-1 Env of isolate MG RM-A-007 (pseudovirus) (HIV-1)
[22] = molecular target: HIV-1 Env of isolate MGRM-AE-008 (pseudovirus) (HIV-1)
[23] = molecular target: HIV-1 JR-CSF Env I423A (I4234 in the source) (HIV-1 (isolate JR-CSF)) (UniProt P20871)
[24] = molecular target: HIV-1 Env of isolate MGRM-AG-012 (pseudovirus) (HIV-1)
[25] = molecular target: HIV-1 MGRM-A-010 Env (HIV-1)
[26] = molecular target: HIV-1 Env of isolate MGRM-A-006 (pseudovirus) (HIV-1)
[27] = molecular target: HIV-1 Env of isolate 92UG046 (pseudovirus) (HIV-1)
[28] = molecular target: HIV-1 Env of isolate MGRM-F1-015 (HIV-1)
[29] = molecular target: HIV-1 Env of pseudovirus isolate MGRM-C-007 (clade C) (HIV-1)
[30] = molecular target: HIV-1 Env of pseudovirus isolate MGRM-C-028 (clade C) (HIV-1)
[31] = molecular target: HIV-1 Env of pseudovirus isolate MGRM-C-026 (clade C) (HIV-1)
[32] = molecular target: HIV-1 Env of isolate MGRM-AE-008 (subtype AE) (HIV-1)
[33] = molecular target: HIV-1 Env of isolate 94KE105 (subtype AC) (HIV-1)
[34] = molecular target: HIV-1 Env of isolate MGRM-D-012 (pseudovirus) (HIV-1)
[35] = molecular target: HIV-1 Env of isolate MGRM-Chronic-B-001 (HIV-1)
[36] = molecular target: HIV-1 APV-17 envelope (Env) on pseudovirus (HIV-1)
[37] = molecular target: HIV-1 Env of isolate MGRM-D-028 (clade D pseudovirus) (HIV-1)
[38] = molecular target: HIV-1 Env of isolate MGRM-D-013 (clade D pseudovirus) (HIV-1)
[39] = molecular target: HIV-1 VLGCA1 envelope glycoprotein (Env) on pseudovirus (HIV-1 (clade A))
[40] = molecular target: HIV-1 Env of isolate 92UG024 (clade D pseudovirus) (HIV-1)
[41] = molecular target: HIV-1 Env of pseudovirus MGRM-F1-020 (clade F) (HIV-1)

Sequence of PGT-145 (4995_P16) (antibody) (VH): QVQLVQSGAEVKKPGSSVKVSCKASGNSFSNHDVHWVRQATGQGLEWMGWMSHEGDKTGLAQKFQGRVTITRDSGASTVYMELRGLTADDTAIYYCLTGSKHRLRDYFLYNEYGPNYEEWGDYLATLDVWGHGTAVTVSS
Sequence of PGT-145 (4995_P16) (antibody) (VL): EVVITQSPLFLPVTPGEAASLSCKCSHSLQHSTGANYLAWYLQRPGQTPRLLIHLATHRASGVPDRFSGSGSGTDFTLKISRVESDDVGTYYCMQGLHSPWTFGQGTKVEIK
Sequence of 4970_K22 (PGT-144) (antibody) (VH): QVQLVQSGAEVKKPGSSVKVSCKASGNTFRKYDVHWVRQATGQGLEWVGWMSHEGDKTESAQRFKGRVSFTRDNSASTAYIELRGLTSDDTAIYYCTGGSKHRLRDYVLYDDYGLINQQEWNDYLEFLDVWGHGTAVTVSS
Sequence of 4970_K22 (PGT-144) (antibody) (VL): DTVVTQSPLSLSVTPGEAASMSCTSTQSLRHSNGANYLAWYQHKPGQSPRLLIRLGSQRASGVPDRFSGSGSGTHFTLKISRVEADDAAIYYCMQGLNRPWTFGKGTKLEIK
Sequence of 4993_K13 (PGT-141) (antibody) (VH): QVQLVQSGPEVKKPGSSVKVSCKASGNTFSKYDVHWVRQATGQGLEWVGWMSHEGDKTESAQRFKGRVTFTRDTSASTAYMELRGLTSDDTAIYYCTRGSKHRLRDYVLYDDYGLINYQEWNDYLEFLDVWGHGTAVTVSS
Sequence of 4993_K13 (PGT-141) (antibody) (VL): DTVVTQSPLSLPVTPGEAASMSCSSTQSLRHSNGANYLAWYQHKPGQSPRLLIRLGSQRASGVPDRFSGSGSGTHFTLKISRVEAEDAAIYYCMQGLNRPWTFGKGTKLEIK
Sequence of PGT-143 (4980_N08) (antibody) (VH): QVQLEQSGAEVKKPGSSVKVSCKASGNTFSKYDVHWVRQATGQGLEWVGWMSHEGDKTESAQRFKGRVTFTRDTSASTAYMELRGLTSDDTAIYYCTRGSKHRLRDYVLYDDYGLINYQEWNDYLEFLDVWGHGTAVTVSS
Sequence of PGT-143 (4980_N08) (antibody) (VL): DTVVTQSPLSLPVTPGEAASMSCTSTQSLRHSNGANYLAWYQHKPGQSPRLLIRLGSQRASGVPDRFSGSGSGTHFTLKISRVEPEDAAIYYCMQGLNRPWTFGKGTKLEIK
Sequence of PGT-142 (4995_E20) (antibody) (VH): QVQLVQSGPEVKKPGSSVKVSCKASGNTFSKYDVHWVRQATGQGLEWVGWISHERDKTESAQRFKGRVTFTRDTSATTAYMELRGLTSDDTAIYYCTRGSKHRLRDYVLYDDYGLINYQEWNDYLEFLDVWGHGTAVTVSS

| Substance | IC50 [9] | IC50, pseudovirus neutralization [10] | IC50, pseudovirus neutralization [11] | IC50, pseudovirus neutralization [12] | IC50 [13] | IC50 (µg/mL), single-round pseudovirus neutralization [14] | IC50 (µg/mL), pseudovirus neutralization [15] | IC50 (µg/mL), pseudovirus neutralization [16] | IC50 (µg/mL), pseudovirus neutralization [17] | IC50 (µg/mL), single-round pseudovirus neutralization [18] | IC50 (µg/mL), pseudovirus neutralization [19] | IC50, pseudovirus neutralization [20] | IC50 (µg/mL), single-round pseudovirus neutralization [21] | further results |
| --- | --- | --- | --- | --- | --- | --- | --- | --- | --- | --- | --- | --- | --- | --- |
| 4838_L06 (PGT-121) (antibody) |  |  |  |  |  |  |  |  |  |  |  |  |  | IC50, pseudovirus neutralization [1]: 0.066 µg/mL; IC50, pseudovirus neutralization [2]: 0.098 µg/mL; IC50 (µg/mL), pseudovirus neutralization [3]: 0.097 µg/mL; IC50, pseudovirus neutralization [4]: > 50 µg/mL; IC50, pseudovirus neutralization [5]: > 50 µg/mL; IC50, pseudovirus neutralization [6]: 0.387 µg/mL; IC50, pseudovirus neutralization [7]: 0.009 µg/mL; IC50, pseudovirus neutralization [8]: > 50 µg/mL |
| PGT-141 (4964_G22; 4993_K13) (antibody) | > 50 µg/mL | < 50 µg/mL | > 50 µg/mL | > 50 µg/mL | > 50 µg/mL |  |  |  |  |  |  |  |  |  |
| PGT-145 (4995_P16) (antibody) | > 50 µg/mL | 0.721 µg/mL | 0.065 µg/mL | > 50 µg/mL | > 50 µg/mL |  |  |  |  |  |  |  |  |  |
| VRC01 (antibody) | > 50 µg/mL | 0.377 µg/mL | > 50 µg/mL | 0.452 µg/mL | 0.043 µg/mL | 0.217 µg/mL | 0.292 µg/mL | 0.644 µg/mL | 0.576 µg/mL | 0.325 µg/mL | 0.576 µg/mL | 0.243 µg/mL | 12.6 µg/mL |  |
| 4995_P16 (PGT-145) (antibody) |  |  |  |  |  | 1.87 µg/mL | > 50 µg/mL | > 50 µg/mL | 1.6 µg/mL | 0.028 µg/mL | > 50 µg/mL | 0.032 µg/mL | > 50 µg/mL |  |
| 5141_B17 (PGT-126) (antibody) |  |  |  |  |  |  |  |  |  |  |  |  |  | IC50, pseudovirus neutralization [1]: 0.353 µg/mL; IC50, pseudovirus neutralization [2]: 0.119 µg/mL; IC50 (µg/mL), pseudovirus neutralization [22]: > 50 µg/mL; IC50 (µg/mL), pseudovirus neutralization [3]: 0.009 µg/mL; IC50, pseudovirus neutralization [4]: > 50 µg/mL; IC50, pseudovirus neutralization [5]: > 50 µg/mL; Fold IC50 increase relative to wild-type (pseudovirus neutralization) [23]: 1.1 fold; IC50 (µg/mL), pseudovirus neutralization [24]: > 50 µg/mL; IC50, pseudovirus neutralization [25]: 0.0033 µg/mL; IC50, pseudovirus neutralization [6]: 0.006 µg/mL; IC50, pseudovirus neutralization [7]: 0.01 µg/mL; IC50, pseudovirus neutralization [8]: 0.108 µg/mL |
| 4877_D15 (PGT-122) (antibody) |  |  |  |  |  |  |  |  |  |  |  |  |  | IC50, pseudovirus neutralization [1]: 0.25 µg/mL; IC50, pseudovirus neutralization [2]: 0.103 µg/mL; IC50 (µg/mL), pseudovirus neutralization [22]: > 50 µg/mL; IC50 (µg/mL), pseudovirus neutralization [3]: 0.154 µg/mL; IC50, pseudovirus neutralization [4]: > 50 µg/mL; IC50, pseudovirus neutralization [5]: > 50 µg/mL; IC50 (µg/mL), pseudovirus neutralization [24]: > 50 µg/mL; IC50, pseudovirus neutralization [25]: 1.68 µg/mL; IC50, pseudovirus neutralization [6]: 2.47 µg/mL; IC50, pseudovirus neutralization [7]: 0.008 µg/mL; IC50, pseudovirus neutralization [8]: > 50 µg/mL |
| PGT-144 (4970_K22) (antibody) | > 50 µg/mL | > 50 µg/mL | > 50 µg/mL | > 50 µg/mL | > 50 µg/mL |  |  |  |  |  |  |  |  |  |
| 5345_I01 (PGT-137) (antibody) |  |  |  |  |  |  |  |  |  |  |  |  |  | IC50 (µg/mL), pseudovirus neutralization [26]: > 50 µg/mL; IC50 (µg/mL), pseudovirus neutralization [27]: > 50 µg/mL; IC50 (µg/mL), pseudovirus neutralization [28]: > 50 µg/mL; IC50, pseudovirus neutralization [29]: > 50 µg/mL; IC50, pseudovirus neutralization [30]: > 50 µg/mL; IC50, pseudovirus neutralization [31]: 0.011 µg/mL; IC50, pseudovirus neutralization [32]: > 50 µg/mL; IC50, pseudovirus neutralization [33]: 18.5 µg/mL; IC50 (µg/mL), pseudovirus neutralization [34]: > 50 µg/mL; IC50 (µg/mL), pseudovirus neutralization [35]: > 50 µg/mL |
| 4995_E20 (PGT-142) (antibody) |  |  |  |  |  | > 50 µg/mL | > 50 µg/mL | > 50 µg/mL | > 50 µg/mL | 0.015 µg/mL | > 50 µg/mL | 5.86 µg/mL | > 50 µg/mL |  |
| 4970_K22 (PGT-144) (antibody) |  |  |  |  |  | > 50 µg/mL | > 50 µg/mL | > 50 µg/mL | > 50 µg/mL | 2.79 µg/mL | > 50 µg/mL | > 50 µg/mL | > 50 µg/mL |  |
| 5329_C19 (PGT-136) (antibody) |  |  |  |  |  |  |  |  |  |  |  |  |  | IC50 (µg/mL), pseudovirus neutralization [26]: > 50 µg/mL; IC50 (µg/mL), pseudovirus neutralization [27]: > 50 µg/mL; IC50 (µg/mL), pseudovirus neutralization [28]: > 50 µg/mL; IC50, pseudovirus neutralization [29]: > 50 µg/mL; IC50, pseudovirus neutralization [30]: 33.7 µg/mL; IC50, pseudovirus neutralization [31]: 0.006 µg/mL; IC50, pseudovirus neutralization [32]: > 50 µg/mL; IC50, pseudovirus neutralization [33]: > 50 µg/mL; IC50 (µg/mL), pseudovirus neutralization [34]: > 50 µg/mL; IC50 (µg/mL), pseudovirus neutralization [35]: > 50 µg/mL |
| 5343_B08 (PGT-135) (antibody) |  |  |  |  |  |  |  |  |  |  |  |  |  | IC50 (µg/mL), pseudovirus neutralization [26]: > 50 µg/mL; IC50 (µg/mL), pseudovirus neutralization [27]: > 50 µg/mL; IC50 (µg/mL), pseudovirus neutralization [28]: 1.11 µg/mL; IC50, pseudovirus neutralization [29]: > 50 µg/mL; Fold IC50 increase relative to wild-type (pseudovirus neutralization) [23]: 0.1 fold; IC50, pseudovirus neutralization [30]: 1.47 µg/mL; IC50, pseudovirus neutralization [31]: 0.004 µg/mL; IC50, pseudovirus neutralization [32]: > 50 µg/mL; IC50, pseudovirus neutralization [33]: 0.063 µg/mL; IC50 (µg/mL), pseudovirus neutralization [34]: > 50 µg/mL; IC50 (µg/mL), pseudovirus neutralization [35]: > 50 µg/mL |
| PGT-143 (4980_N08) (antibody) | > 50 µg/mL | > 50 µg/mL | > 50 µg/mL | > 50 µg/mL | > 50 µg/mL |  |  |  |  |  |  |  |  |  |
| PGV04 (antibody) |  |  |  |  |  |  | 1.61 µg/mL |  |  |  |  |  |  | IC50 (µg/mL), pseudovirus neutralization [14]: 0.569 µg/mL; IC50 (µg/mL), pseudovirus neutralization [22]: 1.51 µg/mL; IC50 (µg/mL), pseudovirus neutralization [24]: 0.04 µg/mL |
| 4980_N08 (PGT-143) (antibody) |  |  |  |  |  | > 50 µg/mL | > 50 µg/mL | > 50 µg/mL | > 50 µg/mL | 0.019 µg/mL | > 50 µg/mL | 17.3 µg/mL | > 50 µg/mL |  |
| 1496_C09 (PG9) (TCN-109) (antibody) |  |  |  |  |  |  |  |  |  |  |  |  |  | IC50 (µg/mL), pseudovirus neutralization [14]: 0.04 µg/mL; IC50 (µg/mL), pseudovirus neutralization [22]: 31.5 µg/mL; neutralization IC50 [36]: 26.4 µg/mL; IC50, pseudovirus neutralization [37]: 4.39 µg/mL; IC50 (µg/mL), pseudovirus neutralization [24]: 22.8 µg/mL; IC50, pseudovirus neutralization [25]: 0.0375 µg/mL; IC50, pseudovirus neutralization [38]: 0.06 µg/mL; IC50 (µg/ml), pseudovirus neutralization [39]: 0.07 µg/mL; IC50, pseudovirus neutralization [40]: 1.91 µg/mL; IC50 [41]: 4.55 µg/mL |
| PGT-142 (4995_E20) (antibody) | > 50 µg/mL | > 50 µg/mL | > 50 µg/mL | > 50 µg/mL | > 50 µg/mL |  |  |  |  |  |  |  |  |  |
| 4993_K13 (PGT-141) (antibody) |  |  |  |  |  | > 50 µg/mL | > 50 µg/mL | > 50 µg/mL | > 50 µg/mL | 0.022 µg/mL | > 5 µg/mL | > 50 µg/mL | > 50 µg/mL |  |
